# Reference: patent US6613506B1, “Compositions and methods for inhibiting human immunodeficiency virus infection by down-regulating human cellular genes” (Subsidiary No. 3, Inc., priority 2000, dated 2003)
# B1: CF-619: GSE, SEQ ID NO:53, sense; Arg/Abl interacting protein (ArgBP2A) gene (nucleic acid, listed as Homo sapiens)
# sense: GTTCCACCTCCAGTCCCGCCGCTTCGACCAAGAGATCGGTCTTCAACAGAAAAGCATGACTGGGATCCTCCAGA
# modifications: chemistry not fully specified
# B2: CF-630: GSE, SEQ ID NO:59, antisense; p40 protein gene (nucleic acid, listed as Homo sapiens)
# antisense: GCTTAGAGTATGGAGAACATGGATGCAGAACACCAGACACCCCTTTCTCTCTCTTTGAAGGAATGGCTGGAACAATATATTTCCTGGCTGACCTGCTAGTCCCCACAAAAGCCAGGTTCG
# modifications: chemistry not fully specified
# notes: p40 protein gene
# B3: H1C-6G5: GSE, SEQ ID NO:117, antisense; human glutaredoxin gene (nucleic acid, listed as Homo sapiens)
# antisense: TTTAAAGGGACAGCTTCGAAGACATTTCCATCTGGTATACTTCACTAGTTAGCAATGCCCAGGAATGC
# B4: CF-579: GSE, SEQ ID NO:61, sense; glucosidase alpha II gene (nucleic acid, listed as Homo sapiens)
# sense: AGTTGGTATCAATGGAGTGGGAGAGGTGAGGAGATCACAAGAGGAATTTGGAGCCCAGGGTCAGCCCTCTCATCCTGCCCAAATGTTGGCAGAATCTGGGTCTTAGACTAGCATAAGTGAAGTCTGGGGAGGGCCGAAC
# B5: CF-335: GSE, SEQ ID NO:35, antisense; protein phosphatase 2A gene (nucleic acid, listed as Homo sapiens)
# antisense: GGTAAGGGTAGGGCACTTTTAATTTAAATGACTTCTTGCACCATCTTGCCTAATGGACTAGATTGGACTGTATCAACATTGATTTACTC
# modifications: chemistry not fully specified
# notes: protein phosphatase 2A gene
# B6: H1C-11H9: GSE, SEQ ID NO:99, antisense; human SHIP gene (nucleic acid, listed as Homo sapiens)
# antisense: GGAACTCCAGGTAGAATTTGGTCTGGGACTTGGTCTTCAATGTGGCATAGCACCTGAGAAACTCAAT
# B7: CF-287: GSE, SEQ ID NO:77, sense; Na+-D-glucose cotransport regulator gene (nucleic acid, listed as Homo sapiens)
# sense: CAGGTTGTCTTTAAGATGTTCTTTTAGACAGCTGCACATTGTAGACCCTTTCACCTGCCCTACACCAAAGATGTACGATGCACTAGGAAACTGCTCATAGGATTTCTGTCAGCT
# B8: H1C-16A3: GSE, SEQ ID NO:101, antisense; human GNB2L1 gene (nucleic acid, listed as Homo sapiens)
# antisense: AGGCGGAGAGGATCATGTCCGGGAACTGCGGGGTAGTAGCGATCTGGGTTACCCAGCCGTTGTGGCCCTTGAGGGTGCCACGAAGGGTCATCTGCTCA
# B9: H1C-16E3: GSE, SEQ ID NO:111, antisense; FYN gene (nucleic acid, listed as Homo sapiens)
# antisense: TTTCTCGCTTGTATTCCTGAAGATGAGTTTGGCCCTGTGACTCTGAAGGGTCGGCTATTAACTGAGACATCCTCTGTCGGGTTGCCCCCCGTGTTATATTTCGCCATGAGGGACTTTACATCTGCCTTTCCATCCTACAAACATAGGGAACAAAAAATAGCTGAGAGACA
# B10: H1C-2F9: GSE, SEQ ID NO:103, antisense; ArgRS gene (nucleic acid, listed as Homo sapiens)
# antisense: ATACTTTAATTTTAAATTTTCTTCTTGTAACTGCTCCAAATTCGGAGAAGCTCCTAAACAGCCACAGTTTTTCAACCGGTCAATTTCAGCAGTCAGAGATTTAATCTCTTCTTCCTGCTGCAGCAGCCGCGCGGAGCACTCAGACATCAGTACGTCCATCCTCCCATCAGCG
# B11: CF-322: GSE, SEQ ID NO:31, sense; anti-proliferative factor (BTG-1) gene (nucleic acid, listed as Homo sapiens)
# sense: CGACAGCTGCAGACCTTCAGCCAGAGCCTGCAGGAGCTGCTGGCAGAACATTATAAACATCACTGGTTCCCAGAAAA
# B12: CF-622: GSE, SEQ ID NO:87, antisense; Rox gene (nucleic acid, listed as Homo sapiens)
# antisense: GGAAAAAAAAAAAAACTACAAAAACCCTAATTTTGTACATACTGTATTTTTACTATTGAACTGTATTCTAGTGGCTGTTCATGCTCCAAGACTTTAGTTACCGAGACATGAATACTATCCATG
# modifications: chemistry not fully specified
# notes: Rox gene
# B13: H1C-37E11: GSE, SEQ ID NO:115, antisense; human cathepsin L gene (nucleic acid, listed as Homo sapiens)
# antisense: GTCGACCTTCCTCTTTACCGTCCACCAGCTCACACAGTGGGGTAGCTGGCTGCTGAGGCAATTCCACAATGGTTTCTCT
# B14: CF-42: GSE, SEQ ID NO:37, sense; squalene synthetase gene (nucleic acid, listed as Homo sapiens)
# sense: TGGCTGGGACCTTTAGGAAAGTGAAATGCAGGTGAGAAGAACCTAAACATGAAAGGAAAGGGTGCCTCATCCCAGCAACCTGTCCTTGTGGGTGATGATCACTGTGCTGCTTGTGGCTCAT
# modifications: chemistry not fully specified
# notes: squalene synthetase gene
# B15: H1C-23G2: GSE, SEQ ID NO:113, antisense; human CTSB gene (nucleic acid, listed as Homo sapiens)
# antisense: GCCGGTGGCTCACATGGCCTGTCTGCACTGTAACCACAGGCTGGGATGTAGCCAGGACTTGGTCTCCTTGGAAGACAGGTCTGATGTTTGGCCAATCCAGTCCTTCAGACCCTGTCTGAAACTTGTA
# B16: CF-624: GSE, SEQ ID NO:57, sense; p18 protein gene (nucleic acid, listed as Homo sapiens)
# sense: TGTTCTGAGAACTGACTTTCTCCCCATCCCCTTCCTAAATATCCAAAGACTGTACTGGCCAGTGTCATTTTATTTTTTCCCTCCTGACAAT
# modifications: chemistry not fully specified
# notes: p18 protein gene
# B17: CF-50: GSE, SEQ ID NO:39, sense; squalene synthetase gene (nucleic acid, listed as Homo sapiens)
# sense: AAGTGAAATGCAGGTGAGAAGAACCTAAACATGAAAGGAAAGGGTGCCTCATCCCAGCAACCTGTCCTTGTGGGTGATGATCACTGTGCTGCTTGTGGCTCATGGCAGAGCATTCAGTGCCAA
# modifications: chemistry not fully specified
# notes: squalene synthetase gene
# B18: CF-547: GSE, SEQ ID NO:51, antisense; recepin endoprotease gene (nucleic acid, listed as Homo sapiens)
# antisense: ACAGAAGGAGAGACCGAATACAAATTTGAATGGCAGAAAGGAGCCCCACGAGAAAAATATGCCAAAGATGACATGAACATCAGAGATCAGCCCTTTA
# modifications: chemistry not fully specified
# notes: recepin endoprotease gene
# B19: CF-320: GSE, SEQ ID NO:27, sense; double-strand break DNA repair gene (nucleic acid, listed as Homo sapiens)
# sense: GCCTGCACATGACGATATGGATGAGGATGATAATGTATCAATGGGTGGGCCTGATAGTCCTGATTCAGTGGATCCCGT
# Tested on: HIV-1IIIB
# Assay: Selection of GSEs from HeLa cell library using productive infection of CEM-ss cells
# Assay type: cell-based
# Experimental: Additionally, a normalized RFE library made from HeLa cells was transferred into CEM-ss cells and the neo resistant population was infected with TCID50 of 3000/10^6 cells of HIV-1IIIB. This RFE library was represented by 50×10^6 independent recombinant clones. Four and seven days after infection, a purified anti-CD4 monoclonal antibody, L77 (available from Becton Dickinson), was added at 5 Φg/mL to prevent syncytia formation. Syncytia formation is thought to be prevented by blocking the interaction between gp120 expressed on the surface of an infected cell and CD4 on the surface of an uninfected cell. […] At 10-12 days after infection, CD4^+, p24^− cell population representing uninfected cells were sorted. Genomic DNA from the CD4^+, p24^− cells was purified and used for PCR amplification of inserts with the vector-derived primers. The amplified mixture was digested with EcoRI and BamHI and cloned back into the retroviral vector. The selection was repeated for additional rounds.
# The selection of GSEs from HeLa cell library using productive infection of CEM-ss cells isolated […] additional nucleic acid molecules which have substantial sequence identity with other cellular genes.
# The selection of GSEs from a HeLa cell library using productive infection of CEM-ss cells isolated 21 additional nucleic acid molecules which have substantial sequence identity with other cellular genes. […] The complement of SEQ ID NO:25 is represented by SEQ ID NO:26. […] The complement of SEQ ID NO:27 is represented by SEQ ID NO:28. […] The complement of SEQ ID NO:29 is represented by SEQ ID NO:30. […] The complement of SEQ ID NO:31 is represented by SEQ ID NO:32. […] The complement of SEQ ID NO:33 is represented by SEQ ID NO:34. […] The complement of SEQ ID NO:35 is represented by SEQ ID NO:36. […] The complement of SEQ ID NO:37 is represented by SEQ ID NO:38. […] The complement of SEQ ID NO:39 is represented by SEQ ID NO:40. […] The complement of SEQ ID NO:41 is represented by SEQ ID NO:42. […] The complement of SEQ ID NO:43 is represented by SEQ ID NO:44. […] The complement of SEQ ID NO:45 is represented by SEQ ID NO:46. […] The complement of SEQ ID NO:47 is represented by SEQ ID NO:48. […] The complement of SEQ ID NO:49 is represented by SEQ ID NO:50. […] The complement of SEQ ID NO:51 is represented by SEQ ID NO:52. […] The complement of SEQ ID NO:53 is represented by SEQ ID NO:54. […] The complement of SEQ ID NO:55 is represented by SEQ ID NO:56. […] The complement of SEQ ID NO:57 is represented by SEQ ID NO:58. […] The complement of SEQ ID NO:59 is represented by SEQ ID NO:60. […] The complement of SEQ ID NO:61 is represented by SEQ ID NO:62. […] The complement of SEQ ID NO:77 is represented by SEQ ID NO:78. […] The complement of SEQ ID NO:87 is represented by SEQ ID NO:88. […] The complement of SEQ ID NO:99 is represented by SEQ ID NO:100. […] The complement of SEQ ID NO:101 is represented by SEQ ID NO:102. […] The complement of SEQ ID NO:103 is represented by SEQ ID NO:104. […] The complement of SEQ ID NO:105 is represented by SEQ ID NO: 106. […] The complement of SEQ ID NO:107 is represented by SEQ ID NO:108. […] The complement of SEQ ID NO:109 is represented by SEQ ID NO:110. […] The complement of SEQ ID NO:111 is represented by SEQ ID NO:112. […] The complement of SEQ ID NO:113 is represented by SEQ ID NO:114. […] The complement of SEQ ID NO:115 is represented by SEQ ID NO:116. […] The complement of SEQ ID NO:117 is represented by SEQ ID NO:118.
row,Molecule,HIV-suppressive activity of the GSE and active orientation
1,B1,interferes with HIV replication in the sense orientation
2,B2,interferes with HIV replication as an antisense molecule
3,B3,interferes with HIV replication as an antisense molecule
4,B4,interferes with HIV replication in a sense orientation
5,B5,interferes with HIV replication as an antisense molecule
6,B6,interferes with HIV replication as an antisense molecule
7,B7,interferes with HIV replication in a sense orientation
8,B8,interferes with HIV replication as an antisense molecule
9,B9,interferes with HIV replication as an antisense molecule
10,B10,interferes with HIV replication as an antisense molecule
11,B11,interferes with HIV replication in the sense orientation
12,B12,interferes with HIV replication as an antisense molecule
13,B13,interferes with HIV replication as an antisense molecule
14,B14,interferes with HIV replication in the sense orientation
15,B15,interferes with HIV replication as an antisense molecule
16,B16,interferes with HIV replication in a sense orientation
17,B17,exhibits its HIV-suppressive activities in the sense orientation
18,B18,interferes with HIV replication as an antisense molecule
19,B19,interferes with HIV infection in the sense orientation
